Measured values from patent US20220227830A1, “QD DOSING OF GIP RECEPTOR AGONIST PEPTIDE COMPOUNDS AND USES THEREOF” (Takeda Pharmaceutical Company Limited, priority 2020, published 2022).
Starred links: 1 amine or outer side, 2 acyl side, 3 side chain; linkers in the order of their positions; H or OH if unused. Non-standard residues stand in square brackets, D forms with d. Groups on a side chain read outwards from the residue. No end group written: not given here. *: point of attachment. 2OEGgEgE‑C15DA = 2OEGgEgE-C15 diacid linker-lipid on the Lys side chain, O=C(O)CCCCCCCCCCCCCC(=O)N[C@@H](CCC(=O)N[C@@H](CCC(=O)NCCOCCOCC(=O)NCCOCCOCC(=O)*)C(=O)O)C(=O)O; C16 diacid = O=C(O)CCCCCCCCCCCCCCC(=O)*; C15 diacid = O=C(O)CCCCCCCCCCCCCC(=O)*; γGlu = O=C(O)[C@H](CCC(=O)[*:2])N[*:1]; NMeY = CN[C@@H](Cc1ccc(O)cc1)C(=O)O; AEEA = NCCOCCOCC(=O)O; Aib = CC(C)(N)C(=O)O

Legend:
[1] = target: T1, full-length human GIPR with an N-terminal FLAG tag (human, UniProt P48546 22-466); assay: cell-based or functional assay
T1 sequence (looked up): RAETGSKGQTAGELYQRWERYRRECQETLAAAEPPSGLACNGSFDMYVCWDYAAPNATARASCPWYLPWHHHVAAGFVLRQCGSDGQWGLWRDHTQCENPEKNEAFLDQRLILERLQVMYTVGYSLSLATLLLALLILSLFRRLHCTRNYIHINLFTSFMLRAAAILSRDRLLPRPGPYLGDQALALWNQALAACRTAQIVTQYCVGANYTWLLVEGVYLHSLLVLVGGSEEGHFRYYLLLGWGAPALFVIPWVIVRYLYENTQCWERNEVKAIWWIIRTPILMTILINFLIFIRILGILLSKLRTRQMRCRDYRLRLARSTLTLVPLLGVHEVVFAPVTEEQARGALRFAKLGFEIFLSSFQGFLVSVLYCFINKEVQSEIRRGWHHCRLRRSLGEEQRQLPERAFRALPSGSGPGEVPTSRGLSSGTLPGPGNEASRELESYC

[2] = target: full-length human GLP-1R with an N-terminal FLAG tag (human, UniProt P43220 24-463); assay: cell-based or functional assay

B1: Compound 9 (peptide)
peptide: [NMeY][Aib]EGTFISDYSIALDRIHQ[Aib]K([AEEA-AEEA-γGlu-C16 diacid])FVNWLLAQK
For B1, the “Human GIPR cAMP, HEK293T EC50” value [1] was 0.0002 nM and the “Human GLP1R cAMP HEK293T EC50” value [2] was 95.5 nM.

B2: Compound 100 (peptide)
peptide: [NMeY][Aib]EGTFISDYSI[Aib]LDR[Aib]AQ[Aib]DFVNWLLAQK(2OEGgE‑C15DA)PSSGAPPPS-NH2
B2 was tested, and the “Human GIPR cAMP, HEK293T EC50” value [1] was 0.0007 nM and the “Human GLP1R cAMP HEK293T EC50” value [2] was 1000 nM.

B3: Compound 95 (peptide)
peptide: [NMeY][Aib]EGTFISDYSI[Aib]K([GGEEE-C15 diacid])DR[Aib]AQ[Aib]NFVNWLLAQRPSSGAPPPS-NH2
B3 was tested, and the “Human GIPR cAMP, HEK293T EC50” value [1] was 0.0002 nM and the “Human GLP1R cAMP HEK293T EC50” value [2] was 537 nM.

B4: Compound 96 (peptide)
peptide: [NMeY][Aib]EGTFISDYSIALDR[Aib]AQ[Aib]KFVNWLLAQRGGGGS-NH2
modifications: not fully specified (residue 21)
For B4, the “Human GIPR cAMP, HEK293T EC50” value [1] was 0.0004 nM and the “Human GLP1R cAMP HEK293T EC50” value [2] was 89.1 nM.

B5: Compound 99 (peptide)
peptide: [NMeY][Aib]EGTFISDYSIAK([GGEEE-C15 diacid])DR[Aib]AQ[Aib]NFVNWLLAQRPSSGAPPPS-NH2
B5 was tested, and the “Human GIPR cAMP, HEK293T EC50” value [1] was 0.0002 nM and the “Human GLP1R cAMP HEK293T EC50” value [2] was 1000 nM.

B6: Compound 97 (peptide)
peptide: [NMeY][Aib]EGTFISDYSIAK([G5-γGlu-C15 diacid])DR[Aib]AQ[Aib]DFVNWLLAQRGGGGS-NH2
For B6, the “Human GIPR cAMP, HEK293T EC50” value [1] was 0.0002 nM and the “Human GLP1R cAMP HEK293T EC50” value [2] was 490 nM.

B7: Compound 98 (peptide)
peptide: [NMeY][Aib]EGTFISDYSIALDR[Aib]AQ[Aib]DFVNWLLAK([AEEA-AEEA-γGlu-C15 diacid])SPSSG-NH2
modifications: N-terminus assumed
SMILES: CC[C@H](C)[C@H](NC(=O)[C@H](CO)NC(=O)[C@H](Cc1ccc(O)cc1)NC(=O)[C@H](CC(=O)O)NC(=O)[C@H](CO)NC(=O)[C@@H](NC(=O)[C@H](Cc1ccccc1)NC(=O)[C@@H](NC(=O)CNC(=O)[C@H](CCC(=O)O)NC(=O)C(C)(C)NC(=O)[C@H](Cc1ccc(O)cc1)NC)[C@@H](C)O)[C@@H](C)CC)C(=O)N[C@@H](C)C(=O)N[C@@H](CC(C)C)C(=O)N[C@@H](CC(=O)O)C(=O)N[C@@H](CCCNC(=N)N)C(=O)NC(C)(C)C(=O)N[C@@H](C)C(=O)N[C@@H](CCC(N)=O)C(=O)NC(C)(C)C(=O)N[C@@H](CC(=O)O)C(=O)N[C@@H](Cc1ccccc1)C(=O)N[C@H](C(=O)N[C@@H](CC(N)=O)C(=O)N[C@@H](Cc1c[nH]c2ccccc12)C(=O)N[C@@H](CC(C)C)C(=O)N[C@@H](CC(C)C)C(=O)N[C@@H](C)C(=O)N[C@@H](CCCCNC(=O)COCCOCCNC(=O)COCCOCCNC(=O)CC[C@H](NC(=O)CCCCCCCCCCCCCC(=O)O)C(=O)O)C(=O)N[C@@H](CO)C(=O)N1CCC[C@H]1C(=O)N[C@@H](CO)C(=O)N[C@@H](CO)C(=O)NCC(N)=O)C(C)C
With B7 the “Human GIPR cAMP, HEK293T EC50” value [1] was 0.0006 nM and the “Human GLP1R cAMP HEK293T EC50” value [2] was 1000 nM.

B8: Compound 94 (peptide)
peptide: [NMeY][Aib]EGTFISDYSI[Aib]K([AEEA-γGlu-γGlu-C15 diacid])DR[Aib]AQ[Aib]NFVNWLLAQRPSSGAPPPS-NH2
modifications: N-terminus assumed
SMILES: CC[C@H](C)[C@H](NC(=O)[C@H](Cc1ccccc1)NC(=O)[C@@H](NC(=O)CNC(=O)[C@H](CCC(=O)O)NC(=O)C(C)(C)NC(=O)[C@H](Cc1ccc(O)cc1)NC)[C@@H](C)O)C(=O)N[C@@H](CO)C(=O)N[C@@H](CC(=O)O)C(=O)N[C@@H](Cc1ccc(O)cc1)C(=O)N[C@@H](CO)C(=O)N[C@H](C(=O)NC(C)(C)C(=O)N[C@@H](CCCCNC(=O)COCCOCCNC(=O)CC[C@H](NC(=O)CC[C@H](NC(=O)CCCCCCCCCCCCCC(=O)O)C(=O)O)C(=O)O)C(=O)N[C@@H](CC(=O)O)C(=O)N[C@@H](CCCNC(=N)N)C(=O)NC(C)(C)C(=O)N[C@@H](C)C(=O)N[C@@H](CCC(N)=O)C(=O)NC(C)(C)C(=O)N[C@@H](CC(N)=O)C(=O)N[C@@H](Cc1ccccc1)C(=O)N[C@H](C(=O)N[C@@H](CC(N)=O)C(=O)N[C@@H](Cc1c[nH]c2ccccc12)C(=O)N[C@@H](CC(C)C)C(=O)N[C@@H](CC(C)C)C(=O)N[C@@H](C)C(=O)N[C@@H](CCC(N)=O)C(=O)N[C@@H](CCCNC(=N)N)C(=O)N1CCC[C@H]1C(=O)N[C@@H](CO)C(=O)N[C@@H](CO)C(=O)NCC(=O)N[C@@H](C)C(=O)N1CCC[C@H]1C(=O)N1CCC[C@H]1C(=O)N1CCC[C@H]1C(=O)N[C@@H](CO)C(N)=O)C(C)C)[C@@H](C)CC
B8 was tested, and the “Human GIPR cAMP, HEK293T EC50” value [1] was 0.0006 nM and the “Human GLP1R cAMP HEK293T EC50” value [2] was 501 nM.

B9: Compound 102 (peptide)
peptide: [NMeY][Aib]EGTFISDYSI[Aib]LDR[Aib]AQ[Aib]K(2OEGgE‑C15DA)FVNWLLAQSPSSGAPPPS-NH2
B9 was tested, and the “Human GIPR cAMP, HEK293T EC50” value [1] was 0.0005 nM and the “Human GLP1R cAMP HEK293T EC50” value [2] was 31.6 nM.

B10: Compound 101 (peptide)
peptide: [NMeY][Aib]EGTFISDYSIALDR[Aib]AQ[Aib]NFVNWLLAQK(2OEGgEgE‑C15DA)PSSGAPPPS-NH2
modifications: N-terminus assumed
SMILES: CC[C@H](C)[C@H](NC(=O)[C@H](CO)NC(=O)[C@H](Cc1ccc(O)cc1)NC(=O)[C@H](CC(=O)O)NC(=O)[C@H](CO)NC(=O)[C@@H](NC(=O)[C@H](Cc1ccccc1)NC(=O)[C@@H](NC(=O)CNC(=O)[C@H](CCC(=O)O)NC(=O)C(C)(C)NC(=O)[C@H](Cc1ccc(O)cc1)NC)[C@@H](C)O)[C@@H](C)CC)C(=O)N[C@@H](C)C(=O)N[C@@H](CC(C)C)C(=O)N[C@@H](CC(=O)O)C(=O)N[C@@H](CCCNC(=N)N)C(=O)NC(C)(C)C(=O)N[C@@H](C)C(=O)N[C@@H](CCC(N)=O)C(=O)NC(C)(C)C(=O)N[C@@H](CC(N)=O)C(=O)N[C@@H](Cc1ccccc1)C(=O)N[C@H](C(=O)N[C@@H](CC(N)=O)C(=O)N[C@@H](Cc1c[nH]c2ccccc12)C(=O)N[C@@H](CC(C)C)C(=O)N[C@@H](CC(C)C)C(=O)N[C@@H](C)C(=O)N[C@@H](CCC(N)=O)C(=O)N[C@@H](CCCCNC(=O)COCCOCCNC(=O)COCCOCCNC(=O)CC[C@H](NC(=O)CC[C@H](NC(=O)CCCCCCCCCCCCCC(=O)O)C(=O)O)C(=O)O)C(=O)N1CCC[C@H]1C(=O)N[C@@H](CO)C(=O)N[C@@H](CO)C(=O)NCC(=O)N[C@@H](C)C(=O)N1CCC[C@H]1C(=O)N1CCC[C@H]1C(=O)N1CCC[C@H]1C(=O)N[C@@H](CO)C(N)=O)C(C)C
For B10, the “Human GIPR cAMP, HEK293T EC50” value [1] was 0.0002 nM and the “Human GLP1R cAMP HEK293T EC50” value [2] was 550 nM.
